Where a chain is given by its changes, count along the chain named. Numbers in names are those of the source.
B1: Fab VH1-46_IGHD6-6*01_IGHJ1*01 S102A/S103P/S104F/H111F (APFF) & L6_IGKJ1*01 S30W (Fab, V domains shown)
VH: QVQLVQSGAEVKKPGASVKVSCKASGYTFTSYYMHWVRQAPGQGLEWMGIINPSGGSTSYAQKFQGRVTMTRDTSTSTVYMELSSLRSEDTAVYYCAREEYAPFSAEYFQFWGQGTLVTVSS
VL: EIVLTQSPATLSLSPGERATLSCRASQSVWSYLAWYQQKPGQAPRLLIYDASNRATGIPARFSGSGSGTDFTLTISSLEPEDFAVYYCQQRSNWPPWTFGQGTKVEIKR
notes: Fab expressed in E. coli: VH joined to CH1 (Plasmid A, His6 and Flag tags), VL joined to kappa CL (Plasmid C); also called APFF S30W
B2: Fab VH1-46_IGHD6-6*01_IGHJ1*01 S102A/S103P/S104F/H111F G56K & L6_IGKJ1*01 (Fab, V domains shown)
VH: B1 VH with G56K
VL: not shown
notes: Fab from E. coli; CH1 (with His and Flag tags) and kappa CL come from the expression plasmids; also called APFF G56K
B3: Fab VH1-46_IGHD6-6*01_IGHJ1*01 S102A/S103P/S104F/H111F G56R & L6_IGKJ1*01 (Fab, V domains shown)
VH: B1 VH with G56R
VL: not shown
notes: Fab from E. coli; CH1 (with His and Flag tags) and kappa CL come from the expression plasmids; also called APFF G56R
B4: Fab VH1-46_IGHD6-6*01_IGHJ1*01 S102A/S103P/S104F/H111F G56S & L6_IGKJ1*01 (Fab, V domains shown)
VH: B1 VH with G56S
VL: not shown
notes: Fab from E. coli; CH1 (with His and Flag tags) and kappa CL come from the expression plasmids; also called APFF G56S
B5: Fab VH1-46_IGHD6-6*01_IGHJ1*01 S102A/S103P/S104F/H111F G56T & L6_IGKJ1*01 (Fab, V domains shown)
VH: B1 VH with G56T
VL: not shown
notes: Fab from E. coli; CH1 (with His and Flag tags) and kappa CL come from the expression plasmids; also called APFF G56T
B6: Fab VH1-46_IGHD6-6*01_IGHJ1*01 S102A/S103P/S104F/H111F G56V & L6_IGKJ1*01 (Fab, V domains shown)
VH: B1 VH with G56V
VL: not shown
notes: Fab from E. coli; CH1 (with His and Flag tags) and kappa CL come from the expression plasmids; also called APFF G56V
B7: Fab VH1-46_IGHD6-6*01_IGHJ1*01 S102A/S103P/S104F/H111F G56W & L6_IGKJ1*01 (Fab, V domains shown)
VH: B1 VH with G56W
VL: not shown
notes: Fab from E. coli; CH1 (with His and Flag tags) and kappa CL come from the expression plasmids; also called APFF G56W
B8: Fab VH1-46_IGHD6-6*01_IGHJ1*01 S102A/S103P/S104F/H111F I51T/N52V & L6_IGKJ1*01 (Fab, V domains shown)
VH: B1 VH with I51T, N52V
VL: not shown
notes: Fab from E. coli; CH1 (with His and Flag tags) and kappa CL come from the expression plasmids; also called APFF I51T/N52V
B9: Fab VH1-46_IGHD6-6*01_IGHJ1*01 S102A/S103P/S104F/H111F N52A & L6_IGKJ1*01 (Fab, V domains shown)
VH: B1 VH with N52A
VL: not shown
notes: Fab from E. coli; CH1 (with His and Flag tags) and kappa CL come from the expression plasmids; also called APFF N52A
B10: Fab VH1-46_IGHD6-6*01_IGHJ1*01 S102A/S103P/S104F/H111F N52G & L6_IGKJ1*01 (Fab, V domains shown)
VH: B1 VH with N52G
VL: not shown
notes: Fab from E. coli; CH1 (with His and Flag tags) and kappa CL come from the expression plasmids; also called APFF N52G
B11: Fab VH1-46_IGHD6-6*01_IGHJ1*01 S102A/S103P/S104F/H111F N52K & L6_IGKJ1*01 (Fab, V domains shown)
VH: B1 VH with N52K
VL: not shown
notes: Fab from E. coli; CH1 (with His and Flag tags) and kappa CL come from the expression plasmids; also called APFF N52K
B12: Fab VH1-46_IGHD6-6*01_IGHJ1*01 S102A/S103P/S104F/H111F N52L & L6_IGKJ1*01 (Fab, V domains shown)
VH: B1 VH with N52L
VL: not shown
notes: Fab from E. coli; CH1 (with His and Flag tags) and kappa CL come from the expression plasmids; also called APFF N52L
B13: Fab VH1-46_IGHD6-6*01_IGHJ1*01 S102A/S103P/S104F/H111F N52P & L6_IGKJ1*01 (Fab, V domains shown)
VH: B1 VH with N52P
VL: not shown
notes: Fab from E. coli; CH1 (with His and Flag tags) and kappa CL come from the expression plasmids; also called APFF N52P
B14: Fab VH1-46_IGHD6-6*01_IGHJ1*01 S102A/S103P/S104F/H111F N52Q & L6_IGKJ1*01 (Fab, V domains shown)
VH: B1 VH with N52Q
VL: not shown
notes: Fab from E. coli; CH1 (with His and Flag tags) and kappa CL come from the expression plasmids; also called APFF N52Q
B15: Fab VH1-46_IGHD6-6*01_IGHJ1*01 S102A/S103P/S104F/H111F N52R & L6_IGKJ1*01 (Fab, V domains shown)
VH: B1 VH with N52R
VL: not shown
notes: Fab from E. coli; CH1 (with His and Flag tags) and kappa CL come from the expression plasmids; also called APFF N52R
B16: Fab VH1-46_IGHD6-6*01_IGHJ1*01 S102A/S103P/S104F/H111F N52S & L6_IGKJ1*01 (Fab, V domains shown)
VH: B1 VH with N52S
VL: not shown
notes: Fab from E. coli; CH1 (with His and Flag tags) and kappa CL come from the expression plasmids; also called APFF N52S
B17: Fab VH1-46_IGHD6-6*01_IGHJ1*01 S102A/S103P/S104F/H111F N52T & L6_IGKJ1*01 (Fab, V domains shown)
VH: B1 VH with N52T
VL: not shown
notes: Fab from E. coli; CH1 (with His and Flag tags) and kappa CL come from the expression plasmids; also called APFF N52T
B18: Fab VH1-46_IGHD6-6*01_IGHJ1*01 S102A/S103P/S104F/H111F N52V & L6_IGKJ1*01 (Fab, V domains shown)
VH: B1 VH with N52V
VL: not shown
notes: Fab from E. coli; CH1 (with His and Flag tags) and kappa CL come from the expression plasmids; also called APFF N52V
B19: Fab VH1-46_IGHD6-6*01_IGHJ1*01 S102A/S103P/S104F/H111F N52W & L6_IGKJ1*01 (Fab, V domains shown)
VH: B1 VH with N52W
VL: not shown
notes: Fab from E. coli; CH1 (with His and Flag tags) and kappa CL come from the expression plasmids; also called APFF N52W
B20: Fab VH1-46_IGHD6-6*01_IGHJ1*01 S102A/S103P/S104F/H111F N52Y & L6_IGKJ1*01 (Fab, V domains shown)
VH: B1 VH with N52Y
VL: not shown
notes: Fab from E. coli; CH1 (with His and Flag tags) and kappa CL come from the expression plasmids; also called APFF N52Y
B21: Fab VH1-46_IGHD6-6*01_IGHJ1*01 S102A/S103P/S104F/H111F S54I & L6_IGKJ1*01 (Fab, V domains shown)
VH: B1 VH with S54I
VL: not shown
notes: Fab from E. coli; CH1 (with His and Flag tags) and kappa CL come from the expression plasmids; also called APFF S54I

Each binder was assayed against T1, Recombinant Human DLL4 (R&D Systems Cat#1506-D4/CF) (human, UniProt Q9NR61 27-524) (assay: ECL multispot (MSD) binding assay, DLL4 spotted on plate, purified Fab in solution; Fab concentration not given).
T1 construct: Bought recombinant protein; also called delta-like protein 4; rHuman DLL4

Row | Binder | ECL signal
1 | B1 | 191000

Each binder was assayed against T1, Recombinant Human DLL4 (R&D Systems …) (assay: ECL multispot (MSD) binding assay, DLL4 signal over blank spot; Fab concentration not given).

Row | Binder | Signal/Blank
2 | B1 | 660

These binders were tested against T2, Recombinant Human DLL4 (delta-like protein 4) (human, UniProt Q9NR61 27-524) (assay: ELISA on plate-coated DLL4, 100 nM Fab).
T2 construct: Bought recombinant protein (R&D Systems Cat#1506-D4/CF); also called rHuman DLL4

Row | Binder | ELISA signal
3 | B2 | 0.19
4 | B3 | 0.2
5 | B4 | 0.18
6 | B5 | 0.2
7 | B6 | 0.23
8 | B7 | 0.54
9 | B8 | 1.23
10 | B9 | 0.12
11 | B10 | 0.47
12 | B11 | 0.45
13 | B12 | 1.06
14 | B13 | 0.18
15 | B14 | 0.1
16 | B15 | 0.01
17 | B16 | 0.28
18 | B17 | 0.61
19 | B18 | 0.24
20 | B19 | 0.42
21 | B20 | 0.01
22 | B21 | 0.03

What follows are binders tested against T2, Recombinant Human DLL4 (delta-like …) (assay: ECL 96-well plate assay on immobilised DLL4, 10 nM Fab).

Row | Binder | ECL signal
23 | B2 | 66200
24 | B3 | 64300
25 | B4 | 65700
26 | B5 | 60700
27 | B6 | 68600
28 | B7 | 69600
29 | B8 | 71700
30 | B9 | 52500
31 | B10 | 55600
32 | B11 | 67100
33 | B12 | 75500
34 | B13 | 44800
35 | B14 | 60600
36 | B15 | 21600
37 | B16 | 62200
38 | B17 | 66800
39 | B18 | 64700
40 | B19 | 87000
41 | B20 | 24500
42 | B21 | 18400
